Source: patent US20200325480A1 (NOGRA PHARMA, published 2020)

Biological target: T1, TGF-β1 R1 (mouse, UniProt Q64729 30-503)
T1 construct: Endogenous protein in total cell extracts; It is seen only as part of the 102 Kda band on the anti-Smad7 Western blot; also called TGF-β1 receptor R1
T1 sequence (looked up): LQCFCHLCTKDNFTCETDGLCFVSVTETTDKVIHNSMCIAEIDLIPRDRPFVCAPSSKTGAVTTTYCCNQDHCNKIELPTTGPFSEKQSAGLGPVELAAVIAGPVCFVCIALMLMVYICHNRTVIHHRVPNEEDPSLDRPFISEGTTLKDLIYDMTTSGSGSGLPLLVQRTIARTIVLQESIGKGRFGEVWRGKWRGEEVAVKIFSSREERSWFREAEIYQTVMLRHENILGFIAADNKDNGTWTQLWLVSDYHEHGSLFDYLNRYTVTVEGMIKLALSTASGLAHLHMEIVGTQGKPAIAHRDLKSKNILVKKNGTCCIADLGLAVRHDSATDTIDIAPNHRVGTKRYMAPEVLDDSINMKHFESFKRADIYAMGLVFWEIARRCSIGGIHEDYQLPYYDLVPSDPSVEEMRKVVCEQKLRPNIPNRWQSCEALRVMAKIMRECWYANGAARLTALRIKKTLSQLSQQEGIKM
Assay: Western blot of LPMC total protein extracts with anti-Smad7 antibody (FIG. 3)

B1: Smad7 (other, mouse, UniProt O35253 1-426, looked up)
chain: MFRTKRSALVRRLWRSRAPGGEDEEEGVGGGGGGGELRGEGATDGRAYGAGGGGAGRAGCCLGKAVRGAKGHHHPHPPTSGAGAAGGAEADLKALTHSVLKKLKERQLELLLQAVESRGGTRTACLLLPGRLDCRLGPGAPASAQPAQPPSSYSLPLLLCKVFRWPDLRHSSEVKRLCCCESYGKINPELVCCNPHHLSRLCELESPPPPYSRYPMDFLKPTAGCPDAVPSSAETGGTNYLAPGGLSDSQLLLEPGDRSHWCVVAYWEEKTRVGRLYCVQEPSLDIFYDLPQGNGFCLGQLNSDNKSQLVQKVRSKIGCGIQLTREVDGVWVYNRSSYPIFIKSATLDNPDSRTLLVHKVFPGFSIKAFDYEKAYSLQRPNDHEFMQQPWTGFTVQISFVKGWGQCYTRQFISSCPCWLEVIFNSR
notes: Endogenous protein in total cell extracts, detected by Western blot with a rabbit anti-human Smad7 antibody; also called free Smad7 (47 Kda band)
**Q.** Does B1 bind?
**A.** Result: binds
